Test in all cases: co-immunoprecipitation: anti-HA IP, anti-FLAG blot, Phoenix-A cell lysates
Experiment [1] deals with T1, FLAG-NCK, full length human NCK with N-terminal FLAG epitope tag (human, UniProt P16333 2-377).
T1 construct: mature; also called FLAG-tagged NCK
The text has this: (§1) Washed precipitates were subjected to SDS-PAGE analysis and Western blotting. Supersignal and Supersignal West Duro substrates (Piers) were used as detection systems for the Western blotting.
(§2) Interaction of Tnik with TRAF2 and NCK—To confirm the interaction of Tnik with TRAF2, N-terminal HA-tagged Tnik was transiently expressed in Phoenix-A cells and HA-Tnik was immunoprecipitated by an anti-HA antibody. The immune complexes were resolved on SDS-PAGE and immunoblotted with an anti-TRAF2 antibody. Endogenous TRAF2 specifically co-immunoprecipitated with HA-Tnik (FIG. 6, top panel). To map the interaction domain on Tnik that mediated its interaction with TRAF2, we constructed several truncated forms of HA-tagged Tnik (FIG. 7) and co-expressed them with FLAG-tagged TRAF2. Anti-HA immunoprecipitates were then blotted with an anti-FLAG antibody to detect the co-immunoprecipitated FLAG-TRAF2. […] Expression levels of the transfected proteins were controlled by immunoblotting cell lysates with anti-HA and anti-FLAG antibodies (FIG. 8, middle and bottom panels).
(§3) We then mapped the domains on TRAF2 that mediated the interaction with Tnik. FLAG-tagged TRAF2 mutants (FIG. 9) were co-expressed with HA-Tnik and the lysates were subjected to anti-HA immunoprecipitation. The immune complexes were then blotted with an anti-FLAG antibody.

Experiment [2] deals with T2, FLAG-TRAF2, full length human Traf2 with N-terminal FLAG epitope tag (human, UniProt Q12933 2-501).
T2 construct: mature; also called FLAG-tagged TRAF2; TRAF2(WT)
T2 sequence: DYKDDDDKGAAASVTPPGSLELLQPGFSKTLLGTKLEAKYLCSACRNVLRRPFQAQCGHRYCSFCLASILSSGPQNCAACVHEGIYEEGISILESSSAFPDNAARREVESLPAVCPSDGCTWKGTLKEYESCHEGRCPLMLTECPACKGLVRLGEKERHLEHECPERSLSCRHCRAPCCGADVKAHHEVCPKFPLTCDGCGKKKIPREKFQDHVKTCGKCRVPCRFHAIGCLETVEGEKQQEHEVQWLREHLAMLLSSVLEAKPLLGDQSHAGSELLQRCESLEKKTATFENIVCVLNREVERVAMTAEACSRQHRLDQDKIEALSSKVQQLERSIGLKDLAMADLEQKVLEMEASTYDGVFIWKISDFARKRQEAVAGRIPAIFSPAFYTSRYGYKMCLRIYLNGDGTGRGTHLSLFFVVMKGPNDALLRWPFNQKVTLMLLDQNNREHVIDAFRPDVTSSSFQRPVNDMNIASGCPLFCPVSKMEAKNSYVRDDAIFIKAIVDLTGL
Source text: as §1, §2, §3

In experiment [3] the target is T3, HA-Tnik(WT), full length human Tnik isoform 1 with N-terminal HA epitope tag (human, UniProt Q9UKE5 1-1360).
T3 construct: Expressed transiently in Phoenix-A cells and immunoprecipitated from lysate; also called Tnik1
Source text: as §1, §2, §3

B1: HA-Tnik(C2), GCKH domain of Tnik (other)
chain: AYPYDVPDYARKISVVNVNPTNIRPHSDTPEIRKYKKRFNSEILCAALWGVNLLVGTENGLMLLDRSGQGKVYNLINRRRFQQMDVLEGLNVLVTISGKKNKLRVYYLSWLRNRILHNDPEVEKKQGWITVGDLEGCIHYKVVKYERIKFLVIALKNAVEIYAWAPKPYHKFMAFKSFADLQHKPLLVDLTVEEGQRLKVIFGSHTGFHVIDVDSGNSYDIYIPSHIQGNITPHAIVILPKTDGMEMLVCYEDEGVYVNTYGRITKDVVLQWGEMPTSVAYIHSNQIMGWGEKAIEIRSVETGHLDGVFMHKRAQRLKFLCERNDKVFFASVRSGGSSQVFFMTLNRNSMMNW
Take B1: the binding result in experiment [1] is recorded as “no binding”.

B2: HA-Tnik(N1), Tnik mutant with only the kinase domain (enzyme)
chain: AYPYDVPDYAMASDSPARSLDEIDLSALRDPAGIFELVELVGNGTYGQVYKGRHVKTGQLAAIKVMDVTGDEEEEIKQEINMLKKYSHHRNIATYYGAFIKKNPPGMDDQLWLVMEFCGAGSVTDLIKNTKGNTLKEEWIAYICREILRGLSHLHQHKVIHRDIKGQNVLLTENAEVKLVDFGVSAQLDRTVGRRNTFIGTPYWMAPEVIACDENPDATYDFKSDLWSLGITAIEMAEGAPPLCDMHPMRALFLIPRNPAPRLKSKKWSKKFQSFIESCLVKNHSQRPATEQLMKHPFIRDQPNERQVRIQLKDH
With B2, the binding result in experiment [1] and in experiment [2] was “no binding” in each case.

B3: FLAG-TRAF2(1-272) (other, human)
chain: DYKDDDDKGMAAASVTPPGSLELLQPGFSKTLLGTKLEAKYLCSACRNVLRRPFQAQCGHRYCSFCLASILSSGPQNCAACVHEGIYEEGISILESSSAFPDNAARREVESLPAVCPSDGCTWKGTLKEYESCHEGRCPLMLTECPACKGLVRLGEKERHLEHECPERSLSCRHCRAPCCGADVKAHHEVCPKFPLTCDGCGKKKIPREKFQDHVKTCGKCRVPCRFHAIGCLETVEGEKQQEHEVQWLREHLAMLLSSVLEAKPLLGDQSHAGSELLQRC
As to B3, in experiment [3], the binding result is listed as “no binding”.

These data come from patent US6562591 (RIGEL PHARMACEUTICALS, dated 2003).
